Results: the RNAGym collection of RNA variant scans (doi:10.7554/elife.80360)

B1: Hairpin Ribozyme (parent)
chain: GUCCUCUUUCACGUGCGCGUGAAAGAGAGAAGUGAACCAGAGAAACACACGUUGUGGUAUAUUACCUGGUA

Variants of: B1
Assay: self-cleavage, relative activity (ratio to wild type); higher = more cleavage; co-transcriptional

Row | Variant | self-cleavage
1 | U20A G40C | 0.0677
2 | U20A G51C | 0.846
3 | U20A G54A | 0.546
4 | U20A G56A | 0.108
5 | U20A G56C | 0.145
6 | U20A G57A | 0.204
7 | U20A G57C | 0.215
8 | U20A G68A | 0.332
9 | U20A G68U | 0.297
10 | U20A U33C | 0.186
11 | U20A U52G | 0.685
12 | U20A U53A | 0.758
13 | U20A U60C | 0.995
14 | U20A U62A | 0.239
15 | U20A U67C | 0.237
16 | U20C A22G | 0.877
17 | U20C A23C | 0.648
18 | U20C A23U | 0.667
19 | U20C A24G | 0.758
20 | U20C A26C | 0.329
21 | U20C A30U | 0.0821
22 | U20C A35C | 0.785
23 | U20C A35U | 0.82
24 | U20C A39C | 0.562

Row | Variant | self-cleavage
25 | U20C A41G | 0.886
26 | U20C A41U | 1.36
27 | U20C A43C | 0.0285
28 | U20C A44C | 0.155
29 | U20C A45U | 0.076
30 | U20C A47U | 0.161
31 | U20C A49U | 0.148
32 | U20C A59C | 0.185
33 | U20C A61C | 0.138
34 | U20C A61G | 0.0608
35 | U20C C37A | 0.426
36 | U20C C37G | 0.342
37 | U20C C38G | 0.154
38 | U20C C38U | 0.415
39 | U20C C46A | 0.237
40 | U20C C46U | 0.103
41 | U20C C48G | 0.104
42 | U20C C48U | 0.175
43 | U20C C65G | 0.472
44 | U20C C66A | 0.309
45 | U20C C66U | 0.486
46 | U20C G25A | 0.288
47 | U20C G27A | 0.345
48 | U20C G27C | 0.169

Row | Variant | self-cleavage
49 | U20C G29U | 0.235
50 | U20C G32U | 0.157
51 | U20C G34C | 1.45
52 | U20C G42A | 0.19
53 | U20C G51C | 0.54
54 | U20C G51U | 1.07
55 | U20C G56A | 0.255
56 | U20C G57C | 0.198
57 | U20C U33C | 0.13
58 | U20C U55A | 0.407
59 | U20C U58A | 0.673
60 | U20C U58C | 0.893
61 | U20C U62C | 0.462
62 | U20C U67G | 0.336
63 | U20C U70G | 0.909
64 | U20G A22G | 0.959
65 | U20G A22U | 0.868
66 | U20G A23G | 0.98
67 | U20G A23U | 0.712
68 | U20G A24C | 0.789
69 | U20G A26C | 0.483
70 | U20G A26G | 0.788
71 | U20G A30C | 0.194
72 | U20G A31G | 0.581

Row | Variant | self-cleavage
73 | U20G A35C | 0.976
74 | U20G A36C | 0.771
75 | U20G A36U | 0.749
76 | U20G A39G | 0.27
77 | U20G A41C | 1.13
78 | U20G A41U | 1.3
79 | U20G A45U | 0.117
80 | U20G A59G | 0.167
81 | U20G A64C | 0.184
82 | U20G A64U | 0.141
83 | U20G A71G | 0.971
84 | U20G A71U | 0.605
85 | U20G C46U | 0.0821
86 | U20G C48G | 0.179
87 | U20G C50A | 0.246
88 | U20G C50U | 0.42
89 | U20G C65A | 0.895
90 | U20G C65G | 0.177
91 | U20G G25U | 0.64
92 | U20G G27U | 0.154
93 | U20G G32A | 0.124
94 | U20G G34U | 1.5
95 | U20G G42A | 0.266
96 | U20G G54C | 0.321

Row | Variant | self-cleavage
97 | U20G G56C | 0.312
98 | U20G G57U | 0.212
99 | U20G G68C | 0.162
100 | U20G U53A | 0.927
101 | U20G U53C | 0.633
102 | U20G U55A | 0.147
103 | U20G U55C | 0.268
104 | U20G U55G | 0.293
105 | U20G U58A | 0.501
106 | U20G U60A | 0.775
107 | U20G U60C | 0.815
108 | U20G U70A | 1.07
109 | U20G U70C | 0.783
110 | G21A A22G | 0.728
111 | G21A A26C | 0.0544
112 | G21A A28U | 0.719
113 | G21A A35C | 0.788
114 | G21A A36G | 0.959
115 | G21A A41U | 1.07
116 | G21A A43G | 0.127
117 | G21A A47C | 0.402
118 | G21A A47G | 0.2
119 | G21A A49U | 0.234
120 | G21A A59G | 0.125

Row | Variant | self-cleavage
121 | G21A A64C | 0.207
122 | G21A A71U | 0.611
123 | G21A C38U | 0.466
124 | G21A C48A | 0.19
125 | G21A C48U | 0.0963
126 | G21A C50A | 0.306
127 | G21A C66G | 0.156
128 | G21A G27U | 0.227
129 | G21A G29U | 0.186
130 | G21A G32C | 0.146
131 | G21A G34U | 1.08
132 | G21A G40U | 0.151
133 | G21A G54A | 0.491
134 | G21A G54C | 0.293
135 | G21A G57A | 0.192
136 | G21A G68C | 0.15
137 | G21A U33C | 0.116
138 | G21A U33G | 0.104
139 | G21A U52C | 0.817
140 | G21A U60A | 0.804
141 | G21A U63C | 0.155
142 | G21A U63G | 0.118
143 | G21A U67G | 0.241
144 | G21A U70A | 0.742

Row | Variant | self-cleavage
145 | G21C A22C | 0.61
146 | G21C A22U | 0.715
147 | G21C A23U | 0.5
148 | G21C A24C | 0.556
149 | G21C A24G | 0.555
150 | G21C A26U | 0.57
151 | G21C A30C | 0.242
152 | G21C A30U | 0.139
153 | G21C A35C | 0.748
154 | G21C A36G | 0.779
155 | G21C A43U | 0.0826
156 | G21C A44C | 0.0985
157 | G21C A44G | 0.194
158 | G21C A47C | 0.254
159 | G21C A47U | 0.181
160 | G21C A59G | 0.206
161 | G21C A59U | 0.204
162 | G21C A64G | 0.564
163 | G21C A71C | 1.12
164 | G21C C37G | 0.425
165 | G21C C38U | 0.452
166 | G21C C46G | 0.162
167 | G21C C50G | 0.278
